# Patent publication US20260242735A1 (UNIVERSIT T BASEL, published 2026)
# Tests used:
# Test in all cases: flow cytometry, alanine scan
# human CD33 F345A = human CD33 F345A (human, UniProt P20138 18-364)
# human CD33 N349A = human CD33 N349A (human, UniProt P20138 18-364)
# human CD33 E333A = human CD33 E333A (human, UniProt P20138 18-364)
# human CD33 A341S = human CD33 A341S (human, UniProt P20138 18-364)
# human CD33 A329S = human CD33 A329S (human, UniProt P20138 18-364)
# human CD33 S324A = human CD33 S324A (human, UniProt P20138 18-364)
# human CD33 N344A = human CD33 N344A (human, UniProt P20138 18-364)
# human CD33 E337A = human CD33 E337A (human, UniProt P20138 18-364)
# Chain of human CD33 E337A (P20138 18-364 E337A limits assumed): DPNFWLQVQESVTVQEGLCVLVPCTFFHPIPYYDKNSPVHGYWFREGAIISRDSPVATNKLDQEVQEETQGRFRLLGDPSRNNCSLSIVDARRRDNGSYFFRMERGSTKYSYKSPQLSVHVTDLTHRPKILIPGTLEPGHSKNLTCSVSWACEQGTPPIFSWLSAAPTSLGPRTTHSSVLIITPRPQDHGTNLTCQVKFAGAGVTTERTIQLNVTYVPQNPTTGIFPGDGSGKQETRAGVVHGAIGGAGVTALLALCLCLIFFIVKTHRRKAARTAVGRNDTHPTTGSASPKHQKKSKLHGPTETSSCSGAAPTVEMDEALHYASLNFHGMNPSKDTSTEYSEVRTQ
# human CD33 G347A = human CD33 G347A (human, UniProt P20138 18-364)
# human CD33 S355A = human CD33 S355A (human, UniProt P20138 18-364)
# human CD33 T354A = human CD33 T354A (human, UniProt P20138 18-364)
# human CD33 H346A = human CD33 H346A (human, UniProt P20138 18-364)
# Chain of human CD33 H346A (P20138 18-364 H346A limits assumed): as the sequence (P20138 18-364 E337A limits assumed) above, with A320E, H329A counted along it
# human CD33 T322A = human CD33 T322A (human, UniProt P20138 18-364)
# human CD33 T356A = human CD33 T356A (human, UniProt P20138 18-364)
# human CD33 A328S = human CD33 A328S (human, UniProt P20138 18-364)
# human CD33 L343A = human CD33 L343A (human, UniProt P20138 18-364)
# Chain of human CD33 L343A (P20138 18-364 L343A limits assumed): as the sequence (P20138 18-364 E337A limits assumed) above, with A320E, L326A counted along it
# human CD33 E360A = human CD33 E360A (human, UniProt P20138 18-364)
# human CD33 T363A = human CD33 T363A (human, UniProt P20138 18-364)
# Chain of human CD33 T363A (P20138 18-364 T363A limits assumed): as the sequence (P20138 18-364 E337A limits assumed) above, with A320E, T346A counted along it
# human CD33 T331A = human CD33 T331A (human, UniProt P20138 18-364)
# Chain of human CD33 T331A (P20138 18-364 T331A limits assumed): as the sequence (P20138 18-364 E337A limits assumed) above, with T314A, A320E counted along it
# human CD33 G327A = human CD33 G327A (human, UniProt P20138 18-364)
# human CD33 E321A = human CD33 E321A (human, UniProt P20138 18-364)
# human CD33 P330A = human CD33 P330A (human, UniProt P20138 18-364)
# Chain of human CD33 P330A (P20138 18-364 P330A limits assumed): as the sequence (P20138 18-364 E337A limits assumed) above, with P313A, A320E counted along it
# human CD33 S359A = human CD33 S359A (human, UniProt P20138 18-364)
# human CD33 C325A = human CD33 C325A (human, UniProt P20138 18-364)
# human CD33 R362A = human CD33 R362A (human, UniProt P20138 18-364)
# human CD33 M334A = human CD33 M334A (human, UniProt P20138 18-364)
# Chain of human CD33 M334A (P20138 18-364 M334A limits assumed): as the sequence (P20138 18-364 E337A limits assumed) above, with M317A, A320E counted along it
# human CD33 E336A = human CD33 E336A (human, UniProt P20138 18-364)
# human CD33 K352A = human CD33 K352A (human, UniProt P20138 18-364)
# Chain of human CD33 K352A (P20138 18-364 K352A limits assumed): as the sequence (P20138 18-364 E337A limits assumed) above, with A320E, K335A counted along it
# human CD33 G318A = human CD33 G318A (human, UniProt P20138 18-364)
# human CD33 P350A = human CD33 P350A (human, UniProt P20138 18-364)
# human CD33 S351A = human CD33 S351A (human, UniProt P20138 18-364)
# human CD33 Y340A = human CD33 Y340A (human, UniProt P20138 18-364)
# human CD33 D335A = human CD33 D335A (human, UniProt P20138 18-364)
# Chain of human CD33 D335A (P20138 18-364 D335A limits assumed): as the sequence (P20138 18-364 E337A limits assumed) above, with D318A, A320E counted along it
# human CD33 M348A = human CD33 M348A (human, UniProt P20138 18-364)
# human CD33 H339A = human CD33 H339A (human, UniProt P20138 18-364)
# Chain of human CD33 H339A (P20138 18-364 H339A limits assumed): as the sequence (P20138 18-364 E337A limits assumed) above, with A320E, H322A counted along it
# human CD33 D353A = human CD33 D353A (human, UniProt P20138 18-364)
# human CD33 Y358A = human CD33 Y358A (human, UniProt P20138 18-364)
# human CD33 P319A = human CD33 P319A (human, UniProt P20138 18-364)
# human CD33 S342A = human CD33 S342A (human, UniProt P20138 18-364)
# human CD33 L338A = human CD33 L338A (human, UniProt P20138 18-364)
# Chain of human CD33 L338A (P20138 18-364 L338A limits assumed): as the sequence (P20138 18-364 E337A limits assumed) above, with A320E, L321A counted along it
# human CD33 S326A = human CD33 S326A (human, UniProt P20138 18-364)
# human CD33 Q364A = human CD33 Q364A (human, UniProt P20138 18-363)
# human CD33 E357A = human CD33 E357A (human, UniProt P20138 18-364)
# human CD33 V332A = human CD33 V332A (human, UniProt P20138 18-364)
# human CD33 S323A = human CD33 S323A (human, UniProt P20138 18-364)
# human CD33 T320A = human CD33 T320A (human, UniProt P20138 18-364)
# Chain of human CD33 T320A (P20138 18-364 T320A limits assumed): as the sequence (P20138 18-364 E337A limits assumed) above, with T303A, A320E counted along it
# human CD33 V361A = human CD33 V361A (human, UniProt P20138 18-364)
# Chain of human CD33 V361A (P20138 18-364 V361A limits assumed): as the sequence (P20138 18-364 E337A limits assumed) above, with A320E, V344A counted along it
# Chain of human CD33 F345A (P20138 18-364 F345A limits assumed): as the sequence (P20138 18-364 E337A limits assumed) above, with A320E, F328A counted along it
binder,measurement,setting,value
"Refmab #3 (antibody, V domains shown, The alanine scan used IgG or Fab) VH: QVQLVQSGAEVKKPGSSVKVSCKASGYTFTDYNMHWVRQAPGQGLEWIGYIYPYNGGTGYNQKFKSKATITADESTNTAYMELSSLRSEDTAVYYCARGRPAMDYWGQGTLVTVSS VL: DIQMTQSPSSLSASVGDRVTITCRASESVDNYGISFMNWFQQKPGKAPKLLIYAASNQGSGVPSRFSGSGSGTDFTLTISSLQPDDFATYYCQQSKEVPWTFGQGTKVEIK",Mean % WT Binding,human CD33 F345A,84 % of WT
same,Mean % WT Binding,human CD33 N349A,121 % of WT
same,Mean % WT Binding,human CD33 E333A,104 % of WT
same,Mean % WT Binding,human CD33 A341S,138 % of WT
same,Mean % WT Binding,human CD33 A329S,133 % of WT
same,Mean % WT Binding,human CD33 S324A,109 % of WT
same,Mean % WT Binding,human CD33 N344A,118 % of WT
same,Mean % WT Binding,human CD33 E337A,114 % of WT
same,Mean % WT Binding,human CD33 G347A,118 % of WT
same,Mean % WT Binding,human CD33 S355A,85.6 % of WT
same,Mean % WT Binding,human CD33 T354A,89.1 % of WT
same,Mean % WT Binding,human CD33 H346A,133 % of WT
same,Mean % WT Binding,human CD33 T322A,83.5 % of WT
same,Mean % WT Binding,human CD33 T356A,108 % of WT
same,Mean % WT Binding,human CD33 A328S,127 % of WT
same,Mean % WT Binding,human CD33 L343A,77.4 % of WT
same,Mean % WT Binding,human CD33 E360A,123 % of WT
same,Mean % WT Binding,human CD33 T363A,91.5 % of WT
same,Mean % WT Binding,human CD33 T331A,147 % of WT
same,Mean % WT Binding,human CD33 G327A,132 % of WT
same,Mean % WT Binding,human CD33 E321A,88.4 % of WT
same,Mean % WT Binding,human CD33 P330A,146 % of WT
same,Mean % WT Binding,human CD33 S359A,135 % of WT
same,Mean % WT Binding,human CD33 C325A,91.2 % of WT
same,Mean % WT Binding,human CD33 R362A,114 % of WT
same,Mean % WT Binding,human CD33 M334A,81.2 % of WT
same,Mean % WT Binding,human CD33 E336A,103 % of WT
same,Mean % WT Binding,human CD33 K352A,96.3 % of WT
same,Mean % WT Binding,human CD33 G318A,117 % of WT
same,Mean % WT Binding,human CD33 P350A,90.7 % of WT
same,Mean % WT Binding,human CD33 S351A,91.8 % of WT
same,Mean % WT Binding,human CD33 Y340A,88 % of WT
same,Mean % WT Binding,human CD33 D335A,87.4 % of WT
same,Mean % WT Binding,human CD33 M348A,133 % of WT
same,Mean % WT Binding,human CD33 H339A,83.5 % of WT
same,Mean % WT Binding,human CD33 D353A,98.3 % of WT
same,Mean % WT Binding,human CD33 Y358A,140 % of WT
same,Mean % WT Binding,human CD33 P319A,76.4 % of WT
same,Mean % WT Binding,human CD33 S342A,121 % of WT
same,Mean % WT Binding,human CD33 L338A,89.3 % of WT
same,Mean % WT Binding,human CD33 S326A,129 % of WT
same,Mean % WT Binding,human CD33 Q364A,97.8 % of WT
same,Mean % WT Binding,human CD33 E357A,120 % of WT
same,Mean % WT Binding,human CD33 V332A,89.8 % of WT
same,Mean % WT Binding,human CD33 S323A,115 % of WT
same,Mean % WT Binding,human CD33 T320A,82.4 % of WT
same,Mean % WT Binding,human CD33 V361A,97.6 % of WT
"Refmab #4 (antibody, V domains shown, The alanine scan used IgG or Fab) VH: QVQLVQSGAEVKKPGESVKVSCKASGYTFTNYGMNWVKQAPGQGLEWMGWINTYTGEPTYADKFQGRVTMTTDTSTSTAYMEIRNLGGDDTAVYYCARWSWSDGYYVYFDYWGQGTSVTVSS VL: DIVMTQSPDSLTVSLGERTTINCKSSQSVLDSSTNKNSLAWYQQKPGQPPKLLLSWASTRESGIPDRFSGSGSGTDFTLTIDSPQPEDSATYYCQQSAHFPITFGQGTRLEIK",Mean % WT Binding,human CD33 F345A,109 % of WT
same,Mean % WT Binding,human CD33 N349A,95.5 % of WT
same,Mean % WT Binding,human CD33 E333A,104 % of WT
same,Mean % WT Binding,human CD33 A341S,104 % of WT
same,Mean % WT Binding,human CD33 A329S,87.3 % of WT
same,Mean % WT Binding,human CD33 S324A,96.4 % of WT
same,Mean % WT Binding,human CD33 N344A,71.2 % of WT
same,Mean % WT Binding,human CD33 E337A,106 % of WT
same,Mean % WT Binding,human CD33 G347A,72.1 % of WT
same,Mean % WT Binding,human CD33 S355A,91.5 % of WT
same,Mean % WT Binding,human CD33 T354A,106 % of WT
same,Mean % WT Binding,human CD33 H346A,111 % of WT
same,Mean % WT Binding,human CD33 T322A,98.2 % of WT
same,Mean % WT Binding,human CD33 T356A,107 % of WT
same,Mean % WT Binding,human CD33 A328S,75.6 % of WT
same,Mean % WT Binding,human CD33 L343A,116 % of WT
same,Mean % WT Binding,human CD33 E360A,104 % of WT
same,Mean % WT Binding,human CD33 T363A,124 % of WT
same,Mean % WT Binding,human CD33 T331A,97.9 % of WT
same,Mean % WT Binding,human CD33 G327A,99.1 % of WT
same,Mean % WT Binding,human CD33 E321A,120 % of WT
same,Mean % WT Binding,human CD33 P330A,97.8 % of WT
same,Mean % WT Binding,human CD33 S359A,82.7 % of WT
same,Mean % WT Binding,human CD33 C325A,88.6 % of WT
same,Mean % WT Binding,human CD33 R362A,104 % of WT
same,Mean % WT Binding,human CD33 M334A,111 % of WT
same,Mean % WT Binding,human CD33 E336A,109 % of WT
same,Mean % WT Binding,human CD33 K352A,103 % of WT
same,Mean % WT Binding,human CD33 G318A,92.2 % of WT
same,Mean % WT Binding,human CD33 P350A,93.1 % of WT
same,Mean % WT Binding,human CD33 S351A,114 % of WT
same,Mean % WT Binding,human CD33 Y340A,112 % of WT
same,Mean % WT Binding,human CD33 D335A,105 % of WT
same,Mean % WT Binding,human CD33 M348A,85 % of WT
same,Mean % WT Binding,human CD33 H339A,82 % of WT
same,Mean % WT Binding,human CD33 D353A,74.9 % of WT
same,Mean % WT Binding,human CD33 Y358A,109 % of WT
same,Mean % WT Binding,human CD33 P319A,97 % of WT
same,Mean % WT Binding,human CD33 S342A,105 % of WT
same,Mean % WT Binding,human CD33 L338A,109 % of WT
same,Mean % WT Binding,human CD33 S326A,65.8 % of WT
same,Mean % WT Binding,human CD33 Q364A,81.5 % of WT
same,Mean % WT Binding,human CD33 E357A,110 % of WT
same,Mean % WT Binding,human CD33 V332A,93.4 % of WT
same,Mean % WT Binding,human CD33 S323A,103 % of WT
same,Mean % WT Binding,human CD33 T320A,109 % of WT
same,Mean % WT Binding,human CD33 V361A,92.4 % of WT
